Test results taken from the supplement of paper PMC9112550, “Optimization of the antimicrobial peptide Bac7 by deep mutational scanning” (BMC Biology, 2022).

These sequences were tested on Escherichia coli TOP10 (assay: shrunken log2 fold change of peptide-encoding DNA abundance (4.5 h post-induction vs induction); higher = less antimicrobial activity (less host growth inhibition)). Settings: time post-induction: 4.5 h; library: site-saturation at positions 5, 18, 19, 20.
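Note: peptides expressed intracellularly from a pBAD plasmid library in pooled LB shake-flask culture, induced with 0.3% L-arabinose, DNA abundance read by NGS, three biological replicates, DESeq2 with apeglm shrinkage.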

Sequence | shrunken log2 fold change
RRIRQRPPRLPRPRPRPWWAPRP | -0.014
RRIRQRPPRLPRPRPRPWYVPRP | -0.0198
RRIRQRPPRLPRPRPRPWYYPRP | 0.0179
RRIRQRPPRLPRPRPRPYCAPRP | -0.624
RRIRQRPPRLPRPRPRPYCDPRP | -0.431
RRIRQRPPRLPRPRPRPYDCPRP | -0.195
RRIRQRPPRLPRPRPRPYDEPRP | -0.00145
RRIRQRPPRLPRPRPRPYEPPRP | 0.00408
RRIRQRPPRLPRPRPRPYFEPRP | -0.524
RRIRQRPPRLPRPRPRPYFWPRP | -0.101
RRIRQRPPRLPRPRPRPYHGPRP | -0.126
RRIRQRPPRLPRPRPRPYHWPRP | -0.0766
RRIRQRPPRLPRPRPRPYIEPRP | -0.45
RRIRQRPPRLPRPRPRPYISPRP | -0.716
RRIRQRPPRLPRPRPRPYKTPRP | -0.0141
RRIRQRPPRLPRPRPRPYLFPRP | -0.509
RRIRQRPPRLPRPRPRPYLTPRP | -0.209
RRIRQRPPRLPRPRPRPYMKPRP | -0.521
RRIRQRPPRLPRPRPRPYMQPRP | -0.239
RRIRQRPPRLPRPRPRPYPNPRP | -0.0164
RRIRQRPPRLPRPRPRPYQGPRP | 0.00707
RRIRQRPPRLPRPRPRPYQHPRP | -0.515
RRIRQRPPRLPRPRPRPYRAPRP | -0.0946
RRIRQRPPRLPRPRPRPYRFPRP | 0.0797
RRIRQRPPRLPRPRPRPYRTPRP | 0.0218

Sequence | shrunken log2 fold change
RRIRQRPPRLPRPRPRPYSHPRP | -0.0388
RRIRQRPPRLPRPRPRPYTAPRP | -0.219
RRIRQRPPRLPRPRPRPYYFPRP | -0.661
RRIRQRPPRLPRPRPRPYYYPRP | -1.18
RRIRRRPPRLPRPRPRPAACPRP | 0.0555
RRIRRRPPRLPRPRPRPAAVPRP | 0.462
RRIRRRPPRLPRPRPRPACDPRP | 0.539
RRIRRRPPRLPRPRPRPADFPRP | 0.115
RRIRRRPPRLPRPRPRPADTPRP | 0.423
RRIRRRPPRLPRPRPRPADYPRP | -0.0547
RRIRRRPPRLPRPRPRPAFYPRP | 0.654
RRIRRRPPRLPRPRPRPAGHPRP | 0.187
RRIRRRPPRLPRPRPRPAGKPRP | 0.211
RRIRRRPPRLPRPRPRPAHAPRP | 0.407
RRIRRRPPRLPRPRPRPAHHPRP | 0.332
RRIRRRPPRLPRPRPRPAHKPRP | 0.386
RRIRRRPPRLPRPRPRPAHNPRP | 0.344
RRIRRRPPRLPRPRPRPAHQPRP | 0.732
RRIRRRPPRLPRPRPRPAIEPRP | 0.109
RRIRRRPPRLPRPRPRPAITPRP | -0.0525
RRIRRRPPRLPRPRPRPALWPRP | 1.02
RRIRRRPPRLPRPRPRPAMPPRP | 0.396
RRIRRRPPRLPRPRPRPANGPRP | -0.164
RRIRRRPPRLPRPRPRPANSPRP | 0.0678
RRIRRRPPRLPRPRPRPAPTPRP | 0.793

Sequence | shrunken log2 fold change
RRIRRRPPRLPRPRPRPAQLPRP | 0.42
RRIRRRPPRLPRPRPRPAQWPRP | 0.912
RRIRRRPPRLPRPRPRPAREPRP | 0.925
RRIRRRPPRLPRPRPRPARHPRP | 0.447
RRIRRRPPRLPRPRPRPARQPRP | -0.0115
RRIRRRPPRLPRPRPRPASIPRP | -0.0206
RRIRRRPPRLPRPRPRPATFPRP | 0.0785
RRIRRRPPRLPRPRPRPAVAPRP | 0.66
RRIRRRPPRLPRPRPRPAWFPRP | 0.22
RRIRRRPPRLPRPRPRPAWGPRP | 0.508
RRIRRRPPRLPRPRPRPAYSPRP | 0.0936
RRIRRRPPRLPRPRPRPCDAPRP | 0.221
RRIRRRPPRLPRPRPRPCECPRP | 0.076
RRIRRRPPRLPRPRPRPCEGPRP | -0.0173
RRIRRRPPRLPRPRPRPCGIPRP | 0.506
RRIRRRPPRLPRPRPRPCHLPRP | -0.0646
RRIRRRPPRLPRPRPRPCIAPRP | -0.247
RRIRRRPPRLPRPRPRPCITPRP | -0.846
RRIRRRPPRLPRPRPRPCKLPRP | 0.00583
RRIRRRPPRLPRPRPRPCMVPRP | 0.106
RRIRRRPPRLPRPRPRPCNRPRP | -0.509
RRIRRRPPRLPRPRPRPCPVPRP | -0.256
RRIRRRPPRLPRPRPRPCRFPRP | -0.0495
RRIRRRPPRLPRPRPRPCRKPRP | -0.444
RRIRRRPPRLPRPRPRPCTGPRP | 0.0659

Sequence | shrunken log2 fold change
RRIRRRPPRLPRPRPRPCWEPRP | 0.109
RRIRRRPPRLPRPRPRPCWFPRP | 0.225
RRIRRRPPRLPRPRPRPCWKPRP | 0.0297
RRIRRRPPRLPRPRPRPCWLPRP | 0.202
RRIRRRPPRLPRPRPRPCWQPRP | 0.285
RRIRRRPPRLPRPRPRPDADPRP | 1.78
RRIRRRPPRLPRPRPRPDCEPRP | 0.363
RRIRRRPPRLPRPRPRPDCIPRP | 0.0761
RRIRRRPPRLPRPRPRPDCMPRP | 0.32
RRIRRRPPRLPRPRPRPDCRPRP | 0.0322
RRIRRRPPRLPRPRPRPDCSPRP | -0.27
RRIRRRPPRLPRPRPRPDEDPRP | 0.219
RRIRRRPPRLPRPRPRPDENPRP | 0.118
RRIRRRPPRLPRPRPRPDFGPRP | 0.0803
RRIRRRPPRLPRPRPRPDFLPRP | 1.31
RRIRRRPPRLPRPRPRPDHCPRP | -0.0402
RRIRRRPPRLPRPRPRPDHWPRP | -0.136
RRIRRRPPRLPRPRPRPDIHPRP | -0.122
RRIRRRPPRLPRPRPRPDISPRP | 0.0322
RRIRRRPPRLPRPRPRPDKVPRP | -0.053
RRIRRRPPRLPRPRPRPDLPPRP | 0.0159
RRIRRRPPRLPRPRPRPDLQPRP | 0.0255
RRIRRRPPRLPRPRPRPDLWPRP | 0.676
RRIRRRPPRLPRPRPRPDMLPRP | -0.0772
RRIRRRPPRLPRPRPRPDMQPRP | 0.272

Sequence | shrunken log2 fold change
RRIRRRPPRLPRPRPRPDNEPRP | 0.207
RRIRRRPPRLPRPRPRPDQCPRP | -0.00402
RRIRRRPPRLPRPRPRPDQNPRP | 0.327
RRIRRRPPRLPRPRPRPDRSPRP | -0.0169
RRIRRRPPRLPRPRPRPDTDPRP | -0.108
RRIRRRPPRLPRPRPRPDTGPRP | 0.0107
RRIRRRPPRLPRPRPRPDTHPRP | -0.254
RRIRRRPPRLPRPRPRPDVPPRP | 0.0826
RRIRRRPPRLPRPRPRPDWSPRP | 0.182
RRIRRRPPRLPRPRPRPDYIPRP | -0.339
RRIRRRPPRLPRPRPRPEATPRP | 2.74
RRIRRRPPRLPRPRPRPECVPRP | 0.419
RRIRRRPPRLPRPRPRPEDAPRP | 0.582
RRIRRRPPRLPRPRPRPEEGPRP | 0.00715
RRIRRRPPRLPRPRPRPEFWPRP | 0.736
RRIRRRPPRLPRPRPRPEGVPRP | 0.874
RRIRRRPPRLPRPRPRPEILPRP | 0.14
RRIRRRPPRLPRPRPRPEKCPRP | -0.00259
RRIRRRPPRLPRPRPRPEKPPRP | 0.376
RRIRRRPPRLPRPRPRPELYPRP | 0.247
RRIRRRPPRLPRPRPRPENCPRP | 0.0654
RRIRRRPPRLPRPRPRPEQVPRP | -0.0118
RRIRRRPPRLPRPRPRPERNPRP | -0.085
RRIRRRPPRLPRPRPRPERPPRP | 0.991
RRIRRRPPRLPRPRPRPERRPRP | 0.418

Sequence | shrunken log2 fold change
RRIRRRPPRLPRPRPRPESYPRP | 0.0503
RRIRRRPPRLPRPRPRPETYPRP | 0.0872
RRIRRRPPRLPRPRPRPEVHPRP | 0.648
RRIRRRPPRLPRPRPRPEVMPRP | 0.212
RRIRRRPPRLPRPRPRPEWAPRP | 0.437
RRIRRRPPRLPRPRPRPEYTPRP | 0.166
RRIRRRPPRLPRPRPRPFAGPRP | -0.0164
RRIRRRPPRLPRPRPRPFCMPRP | 0.084
RRIRRRPPRLPRPRPRPFCQPRP | -0.252
RRIRRRPPRLPRPRPRPFDEPRP | 0.0762
RRIRRRPPRLPRPRPRPFDWPRP | 0.0636
RRIRRRPPRLPRPRPRPFEEPRP | 0.251
RRIRRRPPRLPRPRPRPFEYPRP | -0.0276
RRIRRRPPRLPRPRPRPFFKPRP | -0.177
RRIRRRPPRLPRPRPRPFFQPRP | -0.111
RRIRRRPPRLPRPRPRPFHLPRP | -0.184
RRIRRRPPRLPRPRPRPFHWPRP | -0.111
RRIRRRPPRLPRPRPRPFIFPRP | 0.25
RRIRRRPPRLPRPRPRPFKPPRP | 0.174
RRIRRRPPRLPRPRPRPFLFPRP | 0.0785
RRIRRRPPRLPRPRPRPFLTPRP | 0.228
RRIRRRPPRLPRPRPRPFMQPRP | -0.0994
RRIRRRPPRLPRPRPRPFPRPRP | 0.272
RRIRRRPPRLPRPRPRPFRIPRP | 0.101
RRIRRRPPRLPRPRPRPFRTPRP | -0.0909
